Biological target: the molecule itself
Assay: crystal structure

B1: ERα ligand binding domain (LBD) (305–555) with a Y537S mutation (domain or fragment, UniProt P03372 305-555, looked up)
chain: SLALSLTADQMVSALLDAEPPILYSEYDPTRPFSEASMMGLLTNLADRELVHMINWAKRVPGFVDLTLHDQVHLLECAWLEILMIGLVWRSMEHPGKLLFAPNLLLDRNQGKCVEGMVEIFDMLLATSSRFRMMNLQGEEFVCLKSIILLNSGVYTFLSSTLKSLEEKDHIHRVLDKITDTLIHLMAKAGLTLQQQHQRLAQLLLILSHIRHMSNKGMEHLYSMKCKNVVPLSDLLLEMLDAHRLHAPTSR
  stoichiometry N: 2

— article doi:10.1101/2022.04.15.488344 (bioRxiv, 2022)
